Measurements published in US20240000838A1 (SIMCERE INNOVATION, published 2024).

T1: CD5 on human T cells (autologous and allogeneic Pan-T cells) and on the T-ALL cell line CCRF-CEM (human, UniProt P06127 25-495)
T1 sequence (looked up): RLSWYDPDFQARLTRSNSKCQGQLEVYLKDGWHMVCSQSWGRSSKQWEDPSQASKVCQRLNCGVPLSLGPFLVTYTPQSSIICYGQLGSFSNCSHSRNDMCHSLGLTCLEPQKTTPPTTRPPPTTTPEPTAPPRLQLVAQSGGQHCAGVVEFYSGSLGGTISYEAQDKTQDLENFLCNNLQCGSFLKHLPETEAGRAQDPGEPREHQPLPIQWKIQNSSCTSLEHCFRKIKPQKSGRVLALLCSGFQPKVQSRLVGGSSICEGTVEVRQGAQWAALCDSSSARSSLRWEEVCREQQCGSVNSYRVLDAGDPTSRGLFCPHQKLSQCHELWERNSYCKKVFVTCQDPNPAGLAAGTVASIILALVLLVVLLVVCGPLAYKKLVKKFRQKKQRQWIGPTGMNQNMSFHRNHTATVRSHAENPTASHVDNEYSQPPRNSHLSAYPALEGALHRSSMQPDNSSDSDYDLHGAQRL


These binders were tested against T1, CD5 on human T cells (autologous and …) (assay: cell-based or functional assay).

| Binder | elimination of CCRF-CEM cells after 18 hours (luciferase-based killing assay) |
| --- | --- |
| CD5/CD33 Dual-CAR, construct S036 (other) DIKMTQSPSSMYASLGERVTITCKASQDINSYLSWFHHKPGKSPKTLIYRANRLVDGVPSRFSGSGSGQDYSLTISSLDYEDMGIYYCQQYDESPWTFGGGTKLEMKGGGGSQVQLVQSGAEVKKPGSSVKVSCKASGYTFTDYNMHWVRQAPGQGLEWIGYIYPYNGGTGYNQKFKSKATITADESTNTAYMELSSLRSEDTAVYYCARGRPAMDYWGQGTLVTVSSGSTSGSGKPGSGEGSTKGDIQMTQSPSSLSASVGDRVTITCRASESVDNYGISFMNWFQQKPGKAPKLLIYAASNQGSGVPSRFSGSGSGTDFTLTISSLQPDDFATYYCQQSKEVPWTFGQGTKVEIKGGGGSNIQLVQSGPELKKPGETVKISCKASGYTFTNYGMNWVKQAPGKGLRWMGWINTHTGEPTYADDFKGRFAFSLETSASTAYLQINNLKNEDTATYFCTRRGYDWYFDVWGAGTTVTVSSASTTTPAPRPPTPAPTIASQPLSLRPEACRPAAGGAVHTRGLDFACDIYIWAPLAGTCGVLLLSLVITLYCKRGRKKLLYIFKQPFMRPVQTTQEEDGCSCRFPEEEEGGCELRVKFSRSADAPAYKQGQNQLYNELNLGRREEYDVLDKRRGRDPEMGGKPRRKNPQEGLYNELQKDKMAEAYSEIGMKGERRRGKGHDGLYQGLSTATKDTYDALHMQALPPR | ~100% |
| CD5/CD33 Dual-CAR, construct S037 (other) NIQLVQSGPELKKPGETVKISCKASGYTFTNYGMNWVKQAPGKGLRWMGWINTHTGEPTYADDFKGRFAFSLETSASTAYLQINNLKNEDTATYFCTRRGYDWYFDVWGAGTTVTVSSGGGGSDIQMTQSPSSLSASVGDRVTITCRASESVDNYGISFMNWFQQKPGKAPKLLIYAASNQGSGVPSRFSGSGSGTDFTLTISSLQPDDFATYYCQQSKEVPWTFGQGTKVEIKGSTSGSGKPGSGEGSTKGQVQLVQSGAEVKKPGSSVKVSCKASGYTFTDYNMHWVRQAPGQGLEWIGYIYPYNGGTGYNQKFKSKATITADESTNTAYMELSSLRSEDTAVYYCARGRPAMDYWGQGTLVTVSSGGGGSDIKMTQSPSSMYASLGERVTITCKASQDINSYLSWFHHKPGKSPKTLIYRANRLVDGVPSRFSGSGSGQDYSLTISSLDYEDMGIYYCQQYDESPWTFGGGTKLEMKASTTTPAPRPPTPAPTIASQPLSLRPEACRPAAGGAVHTRGLDFACDIYIWAPLAGTCGVLLLSLVITLYCKRGRKKLLYIFKQPFMRPVQTTQEEDGCSCRFPEEEEGGCELRVKFSRSADAPAYKQGQNQLYNELNLGRREEYDVLDKRRGRDPEMGGKPRRKNPQEGLYNELQKDKMAEAYSEIGMKGERRRGKGHDGLYQGLSTATKDTYDALHMQALPPR | ~100% |
| CD5/CD33 Dual-CAR, construct S038 (other) DIQMTQSPSSLSASVGDRVTITCRASESVDNYGISFMNWFQQKPGKAPKLLIYAASNQGSGVPSRFSGSGSGTDFTLTISSLQPDDFATYYCQQSKEVPWTFGQGTKVEIKGGGGSNIQLVQSGPELKKPGETVKISCKASGYTFTNYGMNWVKQAPGKGLRWMGWINTHTGEPTYADDFKGRFAFSLETSASTAYLQINNLKNEDTATYFCTRRGYDWYFDVWGAGTTVTVSSGSTSGSGKPGSGEGSTKGDIKMTQSPSSMYASLGERVTITCKASQDINSYLSWFHHKPGKSPKTLIYRANRLVDGVPSRFSGSGSGQDYSLTISSLDYEDMGIYYCQQYDESPWTFGGGTKLEMKGGGGSQVQLVQSGAEVKKPGSSVKVSCKASGYTFTDYNMHWVRQAPGQGLEWIGYIYPYNGGTGYNQKFKSKATITADESTNTAYMELSSLRSEDTAVYYCARGRPAMDYWGQGTLVTVSSASTTTPAPRPPTPAPTIASQPLSLRPEACRPAAGGAVHTRGLDFACDIYIWAPLAGTCGVLLLSLVITLYCKRGRKKLLYIFKQPFMRPVQTTQEEDGCSCRFPEEEEGGCELRVKFSRSADAPAYKQGQNQLYNELNLGRREEYDVLDKRRGRDPEMGGKPRRKNPQEGLYNELQKDKMAEAYSEIGMKGERRRGKGHDGLYQGLSTATKDTYDALHMQALPPR | ~100% |
| CD5/CD33 Dual-CAR, construct S039 (other) QVQLVQSGAEVKKPGSSVKVSCKASGYTFTDYNMHWVRQAPGQGLEWIGYIYPYNGGTGYNQKFKSKATITADESTNTAYMELSSLRSEDTAVYYCARGRPAMDYWGQGTLVTVSSGGGGSDIKMTQSPSSMYASLGERVTITCKASQDINSYLSWFHHKPGKSPKTLIYRANRLVDGVPSRFSGSGSGQDYSLTISSLDYEDMGIYYCQQYDESPWTFGGGTKLEMKGSTSGSGKPGSGEGSTKGNIQLVQSGPELKKPGETVKISCKASGYTFTNYGMNWVKQAPGKGLRWMGWINTHTGEPTYADDFKGRFAFSLETSASTAYLQINNLKNEDTATYFCTRRGYDWYFDVWGAGTTVTVSSGGGGSDIQMTQSPSSLSASVGDRVTITCRASESVDNYGISFMNWFQQKPGKAPKLLIYAASNQGSGVPSRFSGSGSGTDFTLTISSLQPDDFATYYCQQSKEVPWTFGQGTKVEIKASTTTPAPRPPTPAPTIASQPLSLRPEACRPAAGGAVHTRGLDFACDIYIWAPLAGTCGVLLLSLVITLYCKRGRKKLLYIFKQPFMRPVQTTQEEDGCSCRFPEEEEGGCELRVKFSRSADAPAYKQGQNQLYNELNLGRREEYDVLDKRRGRDPEMGGKPRRKNPQEGLYNELQKDKMAEAYSEIGMKGERRRGKGHDGLYQGLSTATKDTYDALHMQALPPR | ~100% |
| CD5/CD33 Dual-CAR, construct S040 (other) DIQMTQSPSSLSASVGDRVTITCRASQDINSYLSWFQQKPGKAPKTLIYRANRLESGVPSRFSGSGSGTDYTLTISSLQYEDFGIYYCQQYDESPWTFGGGTKLEIKGGGGSQVQLVQSGAEVKKPGSSVKVSCKASGYTFTDYNMHWVRQAPGQGLEWIGYIYPYNGGTGYNQKFKSKATITADESTNTAYMELSSLRSEDTAVYYCARGRPAMDYWGQGTLVTVSSGSTSGSGKPGSGEGSTKGDIQMTQSPSSLSASVGDRVTITCRASESVDNYGISFMNWFQQKPGKAPKLLIYAASNQGSGVPSRFSGSGSGTDFTLTISSLQPDDFATYYCQQSKEVPWTFGQGTKVEIKGGGGSEIQLVQSGGGLVKPGGSVRISCAASGYTFTNYGMNWVRQAPGKGLEWMGWINTHTGEPTYADSFKGRFTFSLDDSKNTAYLQINSLRAEDTAVYFCTRRGYDWYFDVWGQGTTVTVSSASTTTPAPRPPTPAPTIASQPLSLRPEACRPAAGGAVHTRGLDFACDIYIWAPLAGTCGVLLLSLVITLYCKRGRKKLLYIFKQPFMRPVQTTQEEDGCSCRFPEEEEGGCELRVKFSRSADAPAYKQGQNQLYNELNLGRREEYDVLDKRRGRDPEMGGKPRRKNPQEGLYNELQKDKMAEAYSEIGMKGERRRGKGHDGLYQGLSTATKDTYDALHMQALPPR | ~100% |
| CD5/CD33 Dual-CAR, construct S041 (other) EIQLVQSGGGLVKPGGSVRISCAASGYTFTNYGMNWVRQAPGKGLEWMGWINTHTGEPTYADSFKGRFTFSLDDSKNTAYLQINSLRAEDTAVYFCTRRGYDWYFDVWGQGTTVTVSSGGGGSDIQMTQSPSSLSASVGDRVTITCRASESVDNYGISFMNWFQQKPGKAPKLLIYAASNQGSGVPSRFSGSGSGTDFTLTISSLQPDDFATYYCQQSKEVPWTFGQGTKVEIKGSTSGSGKPGSGEGSTKGQVQLVQSGAEVKKPGSSVKVSCKASGYTFTDYNMHWVRQAPGQGLEWIGYIYPYNGGTGYNQKFKSKATITADESTNTAYMELSSLRSEDTAVYYCARGRPAMDYWGQGTLVTVSSGGGGSDIQMTQSPSSLSASVGDRVTITCRASQDINSYLSWFQQKPGKAPKTLIYRANRLESGVPSRFSGSGSGTDYTLTISSLQYEDFGIYYCQQYDESPWTFGGGTKLEIKASTTTPAPRPPTPAPTIASQPLSLRPEACRPAAGGAVHTRGLDFACDIYIWAPLAGTCGVLLLSLVITLYCKRGRKKLLYIFKQPFMRPVQTTQEEDGCSCRFPEEEEGGCELRVKFSRSADAPAYKQGQNQLYNELNLGRREEYDVLDKRRGRDPEMGGKPRRKNPQEGLYNELQKDKMAEAYSEIGMKGERRRGKGHDGLYQGLSTATKDTYDALHMQALPPR | ~100% |
| CD5/CD33 Dual-CAR, construct S042 (other) DIQMTQSPSSLSASVGDRVTITCRASESVDNYGISFMNWFQQKPGKAPKLLIYAASNQGSGVPSRFSGSGSGTDFTLTISSLQPDDFATYYCQQSKEVPWTFGQGTKVEIKGGGGSEIQLVQSGGGLVKPGGSVRISCAASGYTFTNYGMNWVRQAPGKGLEWMGWINTHTGEPTYADSFKGRFTFSLDDSKNTAYLQINSLRAEDTAVYFCTRRGYDWYFDVWGQGTTVTVSSGSTSGSGKPGSGEGSTKGDIQMTQSPSSLSASVGDRVTITCRASQDINSYLSWFQQKPGKAPKTLIYRANRLESGVPSRFSGSGSGTDYTLTISSLQYEDFGIYYCQQYDESPWTFGGGTKLEIKGGGGSQVQLVQSGAEVKKPGSSVKVSCKASGYTFTDYNMHWVRQAPGQGLEWIGYIYPYNGGTGYNQKFKSKATITADESTNTAYMELSSLRSEDTAVYYCARGRPAMDYWGQGTLVTVSSASTTTPAPRPPTPAPTIASQPLSLRPEACRPAAGGAVHTRGLDFACDIYIWAPLAGTCGVLLLSLVITLYCKRGRKKLLYIFKQPFMRPVQTTQEEDGCSCRFPEEEEGGCELRVKFSRSADAPAYKQGQNQLYNELNLGRREEYDVLDKRRGRDPEMGGKPRRKNPQEGLYNELQKDKMAEAYSEIGMKGERRRGKGHDGLYQGLSTATKDTYDALHMQALPPR | ~100% |
